Target: Bpa78-βarr1 with a 2xStrep tag at the C-terminus (bovine) (UniProt P17870)
Assay: cross-linking; Bpa78-βarr1-2xStrep in HEK293T cells irradiated with UV (365 nm) as intact cells, then isolated with Strep-Tactin XT (1 M NaCl, 1 M urea in the supernatant); product analysed by SDS-PAGE/blot, SEC (Superdex 200 Increase, 4°C, Buffer W), MALDI-TOF-MS and nano-HPLC/nano-ESI-Orbitrap-MS/MS

Bpa78-βarr1 with a 2xStrep tag at the C-terminus (from UniProt P17870 1-418) (natural protein)
stoichiometry N: 2
